B1: Protein BCL9 homolog (Drosophila melanogaster (Fruit fly)), Q961D9 (parent)
chain: MLSTTMPRSPTQQQPQPNSDASSTSASGSNPGAAIGNGDSAASRSSPKTLNSEPFSTLSPDQIKLTPEEGTEKSGLSTSDKAATGGAPGSGNNLPEGQTMLRQNSTSTINSCLVASPQNSSEHSNSSNVSATVGLTQMVDCDEQSKKNKCSVKDEEAEISSNKAKGQAAGGGCETGSTSSLTVKEEPTDVLGSLVNMKKEERENHSPTMSPVGFGSIGNAQDNSATPVKIERISNDSTTEKKGSSLTMNNDEMSMEGCNQLNPDFINESLNNPAISSILVSGVGPIPGIGVGAGTGNLLTANANGISSGSSNCLDYMQQQNHIFVFSTQLANKGAESVLSGQFQTIIAYHCTQPATKSFLEDFFMKNPLKINKLQRHNSVGMPWIGMGQVGLTPPNPVAKITQQQPHTKTVGLLKPQFNQHENSKRSTVSAPSNSFVDQSDPMGNETELMCWEGGSSNTSRSGQNSRNHVDSISTSSESQAIKILEAAGVDLGQVTKGSDPGLTTENNIVSLQGVKVPDENLTPQQRQHREEQLAKIKKMNQFLFPENENSVGANVSSQITKIPGDLMMGMSGGGGGSIINPTMRQLHMPGNAKSELLSATSSGLSEDVMHPGDVISDMGAVIGCNNNQKTSVQCGSGVGVVTGTTAAGVNVNMHCSSSGAPNGNMMGSSTDMLASFGNTSCNVIGTAPDMSKEVLNQDSRTHSHQGGVAQMEWSKIQHQFFEERLKGGKPRQVTGTVVPQQQTPSGSGGNSLNNQVRPLQGPPPPYHSIQRSASVPIATQSPNPSSPNNLSLPSPRTTAAVMGLPTNSPSMDGTGSLSGSVPQANTSTVQAGTTTVLSANKNCFQADTPSPSNQNRSRNTGSSSVLTHNLSSNPSTPLSHLSPKEFESFGQSSAGDNMKSRRPSPQGQRSPVNSLIEANKDVRFAASSPGFNPHPHMQSNSNSALNAYKMGSTNIQMERQASAQGGSVQFSRRSDNIPLNPNSGNRPPPNKMTQNFDPISSLAQMSQQLTSCVSSMGSPAGTGGMTMMGGPGPSDINIEHGIISGLDGSGIDTINQNNCHSMNVVMNSMGPRMLNPKMCVAGGPNGPPGFNPNSPNGGLRENSIGSGCGSANSSNFQGVVPPGARMMGRMPVNFGSNFNPNIQVKASTPNTIQYMPVRAQNANNNNNNGANNVRMPPSLEFLQRYANPQMGAVGNGSPICPPSASDGTPGMPGLMAGPGAGGMLMNSSGEQHQNKITNNPGASNGINFFQNCNQMSIVDEEGGLPGHDGSMNIGQPSMIRGMRPHAMRPNVMGARMPPVNRQIQFAQSSDGIDCVGDPSSFFTNASCNSAGPHMFGSAQQANQPKTQHIKNIPSGMCQNQSGLAVAQGQIQLHGQGHAQGQSLIGPTNNNLMSTAGSVSATNGVSGINFVGPSSTDLKYAQQYHSFQQQLYATNTRSQQQQHMHQQHQSNMITMPPNLSPNPTFFVNK
partner: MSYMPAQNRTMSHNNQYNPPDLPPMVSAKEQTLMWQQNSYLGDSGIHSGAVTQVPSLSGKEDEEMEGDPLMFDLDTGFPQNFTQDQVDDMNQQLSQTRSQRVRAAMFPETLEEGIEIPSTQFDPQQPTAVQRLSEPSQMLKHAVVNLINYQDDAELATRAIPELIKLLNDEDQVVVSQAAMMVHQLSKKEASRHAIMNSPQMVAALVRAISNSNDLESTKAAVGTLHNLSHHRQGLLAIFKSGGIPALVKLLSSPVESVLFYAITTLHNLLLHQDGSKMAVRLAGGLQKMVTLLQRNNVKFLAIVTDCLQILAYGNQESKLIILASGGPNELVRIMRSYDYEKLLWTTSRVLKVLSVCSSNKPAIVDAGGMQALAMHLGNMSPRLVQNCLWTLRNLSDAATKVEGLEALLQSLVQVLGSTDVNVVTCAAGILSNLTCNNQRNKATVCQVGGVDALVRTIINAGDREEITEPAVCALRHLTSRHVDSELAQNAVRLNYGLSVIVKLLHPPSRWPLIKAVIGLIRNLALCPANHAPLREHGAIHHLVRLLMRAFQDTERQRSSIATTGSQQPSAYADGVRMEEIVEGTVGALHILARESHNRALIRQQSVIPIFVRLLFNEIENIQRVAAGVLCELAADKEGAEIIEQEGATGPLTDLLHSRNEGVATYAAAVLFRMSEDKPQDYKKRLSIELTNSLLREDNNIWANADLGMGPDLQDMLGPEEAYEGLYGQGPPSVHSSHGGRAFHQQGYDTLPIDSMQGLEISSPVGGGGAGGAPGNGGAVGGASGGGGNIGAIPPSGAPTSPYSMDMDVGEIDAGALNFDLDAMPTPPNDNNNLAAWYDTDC

In this assay the parent is B1. The conditions noted are these: with arm_drome arm.
L534F: the “effect of a mutation on the interaction” value was “decreasing interaction”.

The record behind these values is IntAct's records for PubMed 11955446.
